The text below walks through data of patent US20260108605A1.

In general, Kd refers to the concentration at which binding is half-saturated. Higher therefore signals lower affinity. The koff is a measure of how fast the partners let go of each other. The kon is a measure of how fast the partners come together.

The target of the experiment is antibody anti-FITC IgG1 (prepared in-house). Briefly: SPR, Biacore 8K; anti-FITC IgG1 captured on Protein A chip, CD16a protein as analyte. In general terms: Surface plasmon resonance follows binding to a sensor surface in real time, without labels.
“1600E, recombinant fragment of the extracellular domain of CD16a protein with natural mutation F176V (from UniProt P08637 17-208) (receptor)” had a Kd of 0.484 µM, a koff of 0.119 s⁻¹ and a kon of 245000 M⁻¹ s⁻¹.

For the substance “1600WE, recombinant fragment of the extracellular domain of wild-type CD16a protein (from UniProt P08637 17-208) (receptor)”, the Kd turned out to be 2.6 µM, the koff is 0.258 s⁻¹ and the association rate constant (kon) came out at 99500 M⁻¹ s⁻¹.

For “1602E, recombinant fragment of the extracellular domain of CD16a protein with point mutation Q192P (from UniProt P08637 17-208) (receptor)”, the Kd amounted to 0.557 µM, the koff amounted to 0.119 s⁻¹ and the kon came out at 214000 M⁻¹ s⁻¹.

For “1604E, recombinant fragment of the extracellular domain of CD16a protein with point mutation L194P (from UniProt P08637 17-208) (receptor)”, the Kd is 0.477 µM, the off-rate constant (koff) came out at 0.113 s⁻¹ and the kon is 236000 M⁻¹ s⁻¹.

“1615E, recombinant fragment of the extracellular domain of CD16a protein with point mutation A195V (from UniProt P08637 17-208) (receptor)” gave a Kd of 0.576 µM, a koff of 0.113 s⁻¹ and an association rate constant (kon) of 196000 M⁻¹ s⁻¹.

Take “1623E, recombinant fragment of the extracellular domain of CD16a protein with point mutation V196G (from UniProt P08637 17-208) (receptor)”: the dissociation constant (Kd) was determined as 0.418 µM, the koff was found to be 0.105 s⁻¹ and the kon came to 251000 M⁻¹ s⁻¹.

For the substance “1625E, recombinant fragment of the extracellular domain of CD16a protein with point mutation V196Q (from UniProt P08637 17-208) (receptor)”, the Kd was 0.415 µM, the koff turned out to be 0.112 s⁻¹ and the on-rate constant (kon) is 270000 M⁻¹ s⁻¹.

Turning to “1626E, recombinant fragment of the extracellular domain of CD16a protein with point mutation V196M (from UniProt P08637 17-208) (receptor)”, the dissociation constant Kd is 0.476 µM, the off-rate (koff) stood at 0.114 s⁻¹ and the kon is 240000 M⁻¹ s⁻¹.

As to “1627E, recombinant fragment of the extracellular domain of CD16a protein with point mutation V196H (from UniProt P08637 17-208) (receptor)”, the equilibrium dissociation constant (Kd) was determined as 0.402 µM, the koff stood at 0.107 s⁻¹ and the kon amounted to 267000 M⁻¹ s⁻¹.

For “1630E, recombinant fragment of the extracellular domain of CD16a protein with point mutation S197P (from UniProt P08637 17-208) (receptor)”, the Kd was determined as 0.448 µM, the koff amounted to 0.117 s⁻¹ and the kon is 260000 M⁻¹ s⁻¹.

In turn, “1632E, recombinant fragment of the extracellular domain of CD16a protein with point mutation Q192N (from UniProt P08637 17-208) (receptor)” gave a dissociation constant (Kd) of 0.479 µM, a koff of 0.117 s⁻¹ and a kon of 244000 M⁻¹ s⁻¹.

On to “1635E, recombinant fragment of the extracellular domain of CD16a protein with point mutation L194I (from UniProt P08637 17-208) (receptor)”, for which the dissociation constant Kd came to 0.506 µM, the koff amounted to 0.121 s⁻¹ and the kon was 240000 M⁻¹ s⁻¹.

In the case of “1637E, recombinant fragment of the extracellular domain of CD16a protein with point mutation V196S (from UniProt P08637 17-208) (receptor)”, the Kd is 0.391 µM, the koff was found to be 0.101 s⁻¹ and the on-rate constant (kon) amounted to 257000 M⁻¹ s⁻¹.
